Measurements from patent US20240343803A1 (SHANDONG SIMCERE BIOPHARMACEUTICAL, published 2024).

How the values were obtained:
[1] = target: T1, human PVRIG-his (AcroBiosystems, Cat NO. PVG-H52H4) (human, UniProt Q6DKI7 41-171, limits assumed); assay: ELISA, antigen coated
T1 construct: also called human PVRIG protein
T1 sequence (looked up): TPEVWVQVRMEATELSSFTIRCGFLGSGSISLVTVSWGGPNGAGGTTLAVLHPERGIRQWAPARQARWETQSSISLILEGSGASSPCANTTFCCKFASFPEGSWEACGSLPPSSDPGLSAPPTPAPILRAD
Procedure: (§1) The ELISA plate was pre-coated with 100 μL/well of 0.5 μg/mL human PVRIG-his (AcroBiosystems, Cat NO. PVG-H52H4) or cynomolgus monkey PVRIG (Novoprotein, Cat NO. C09B). The tested anti-PVRIG humanized antibodies were serially diluted (initial concentration 3 nM, 3-fold serial dilution), added into the plate (100 μL/well) and incubated with shaking at room temperature for 1.5 hours. […] A HRP substrate, TMB (Thermo, Cat NO. 34029) was added into wells after washing the plate again for color development. After adding a termination solution to terminate the reaction, the absorbance value was read by a microplate reader (MD i3×). An antibody binding curve was drawn with concentration of antibodies as the abscissa and the corresponding OD value as the ordinate. The EC50 value was calculated by using a Four Parameter Logistic Fit (GraphPadPrism9). The smaller the EC50 value, the stronger the ability of the antibodies binds to human or cynomolgus monkey PVRIG. The binding effect of the humanized antibodies was normalized to the corresponding parental antibodies. If the percentage value is higher than 100%, the binding effect of humanized antibodies is better than that of parental antibody.

[2] = target: T2, cynomolgus monkey PVRIG (Novoprotein, Cat NO. C09B) (cynomolgus monkey, UniProt A0A2K5WVV8 41-171); assay: ELISA, antigen coated
T2 construct: also called cynomolgus monkey PVRIG protein
T2 sequence: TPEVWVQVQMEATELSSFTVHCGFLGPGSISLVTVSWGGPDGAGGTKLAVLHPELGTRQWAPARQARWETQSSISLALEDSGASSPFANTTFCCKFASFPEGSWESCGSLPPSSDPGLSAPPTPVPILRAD
Procedure: as §1

[3] = target: T1, human PVRIG-his (AcroBiosystems, Cat …); assay: competition ELISA, PVRIG-His coated, competitor human PVRL2-mFc; set-up: AUC: unit not given here
Procedure: The ELISA plate was pre-coated with 100 μL/well of 0.5 μg/mL human PVRIG-his protein (AcroBiosystems, Cat NO. PVG-H52H4). The tested anti-PVRIG antibodies were diluted from the highest concentration of 16 nM (two-fold concentration). The diluted antibodies were mixed with 18 ng/ml human PVRL2-mFc (AcroBiosystems, Cat NO. CD2-H5257) in equal volume, added into the plate (100 μL/well), and incubated with shaking at room temperature for 2.0 hours. […] A HRP substrate, TMB (Thermo, Cat NO. 34029) was added into wells after washing the plate again for color development. After adding a termination solution to terminate the reaction, the absorbance value was read by a microplate reader (MD i3×). An inhibiting curve was drawn with concentration of antibodies as the abscissa and the corresponding OD value as the ordinate. The IC50 value was calculated by using a Four Parameter Logistic Fit (GraphPadPrism9). The smaller the IC50 value, the stronger the ability of the antibodies inhibits the binding between PVRIG and PVRL2. The positive and negative controls are the same as in Example 8.
The methods refer to Example 11. The inhibiting activity of the humanized antibodies was normalized to the corresponding parental antibodies. If the percentage value is higher than 100%, the inhibiting effect of humanized antibodies is better than that of parental antibodies.

B1: PVRIG-A118-H4 (Fc fusion)
chain: EVQLVESGGGLVQPGGSLRLSCAASETYFDLYVMGWYRQAPGKDRELVATITYTGSIKYVDSVKGRFTISRGDAKNSLSLQMNSLRAEDTAVYYCNADPSGLGRKVYWGQGTMVTVSS
notes: humanized variant of PVRIG-A118; also called A118.VH4; not shown: constant part not restated for the humanized forms; parents are VHH-hinge-CH2-CH3 of human IgG1; detected by anti-human
% relative activity parental antibody/tested antibody [1]: 95.8% | EC50 [1]: 0.0522 nM | % relative activity parental antibody/tested antibody [2]: 37.1% | EC50 [2]: 0.0729 nM | % relative activity (AUC) parental antibody/test antibody [3]: 112% | % relative activity (IC50) parental antibody/test antibody [3]: 120% | AUC [3]: 1.42 | IC50 [3]: 0.462 nM

B2: PVRIG-A118-H5 (Fc fusion)
chain: EVQLVESGGGLVQPGGSLRLSCAASETYFDLYVMGWYRQAPGKDRELVATITYTGSIKYVDSVKGRFTISRGDAKNSVYLQMNSLRAEDTAVYYCNADPSGLGRKVYWGQGTMVTVSS
notes: humanized variant of PVRIG-A118; also called A118.VH5; not shown: constant part not restated for the humanized forms; parents are VHH-hinge-CH2-CH3 of human IgG1; detected by anti-human
% relative activity parental antibody/tested antibody [1]: 104% | EC50 [1]: 0.0481 nM | % relative activity parental antibody/tested antibody [2]: 40.2% | EC50 [2]: 0.0673 nM | % relative activity (AUC) parental antibody/test antibody [3]: 114% | % relative activity (IC50) parental antibody/test antibody [3]: 146% | AUC [3]: 1.39 | IC50 [3]: 0.381 nM

B3: PVRIG-A118-H6 (Fc fusion)
chain: EVQLVESGGGLVQPGGSLRLSCAASETYFDLYVMGWYRQAPGKDRELVATITYTGSIKIVDSVKGRFTISRGDAKNSLYLQMNSLRAEDTAVYYCNADPSGLGRKVYWGQGTMVTVSS
notes: humanized variant of PVRIG-A118; also called A118.VH6; not shown: constant part not restated for the humanized forms; parents are VHH-hinge-CH2-CH3 of human IgG1; detected by anti-human
% relative activity parental antibody/tested antibody [1]: 90.8% | EC50 [1]: 0.0551 nM | % relative activity parental antibody/tested antibody [2]: 48.4% | EC50 [2]: 0.0559 nM | % relative activity (AUC) parental antibody/test antibody [3]: 108% | % relative activity (IC50) parental antibody/test antibody [3]: 132% | AUC [3]: 1.47 | IC50 [3]: 0.422 nM

B4: PVRIG-A50-H1a (Fc fusion)
chain: EVQLVESGGGLVQPGGSLRLSCAASGFTFSYYDMSWVRQAPGKGLEWVSTINSDGGRTSYVDSVKGRFTISRDNSKNTLYLQMNSLRAEDTAVYYCVEGDPHNFGLENLSLRDFGSWGQGTMVTVSS
notes: humanized variant of PVRIG-A50; also called A50.VH1a; not shown: constant part not restated for the humanized forms; parents are VHH-hinge-CH2-CH3 of human IgG1; detected by anti-human
% relative activity parental antibody/tested antibody [1]: 92.4% | EC50 [1]: 0.099 nM | % relative activity parental antibody/tested antibody [2]: 66.4% | EC50 [2]: 0.185 nM | % relative activity (AUC) parental antibody/test antibody [3]: 82.5% | % relative activity (IC50) parental antibody/test antibody [3]: 73% | AUC [3]: 2.43 | IC50 [3]: 1.06 nM

B5: PVRIG-A50-H1b (Fc fusion)
chain: EVQLVESGGGLVQPGGSLRLSCAASGFTFSYYDMSWVRQAPGKGLEWVSTINSDGGRTSYVDSVKGRFTISRDNSKNTLYLQMNSLRAEDTAVYYCVEGDPHNFGLESLSLRDFGSWGQGTMVTVSS
notes: humanized variant of PVRIG-A50; also called A50.VH1b; not shown: constant part not restated for the humanized forms; parents are VHH-hinge-CH2-CH3 of human IgG1; detected by anti-human
% relative activity parental antibody/tested antibody [1]: 111% | EC50 [1]: 0.0819 nM | % relative activity parental antibody/tested antibody [2]: 75.8% | EC50 [2]: 0.161 nM | % relative activity (AUC) parental antibody/test antibody [3]: 105% | % relative activity (IC50) parental antibody/test antibody [3]: 125% | AUC [3]: 2 | IC50 [3]: 0.847 nM

B6: PVRIG-A50-H2a (Fc fusion)
chain: EVQLVESGGGLVQPGGSLRLSCAASGFTFSYYDMSWVRQAPGKGLEWVSTINSNAGRTSYVDSVKGRFTISRDNTKNTLYLQMNSLRAEDTAVYYCVEGDPHNFGLESLSLRDFGSWGQGTMVTVSS
notes: humanized variant of PVRIG-A50; also called A50.VH2a; not shown: constant part not restated for the humanized forms; parents are VHH-hinge-CH2-CH3 of human IgG1; detected by anti-human
% relative activity parental antibody/tested antibody [1]: 140% | EC50 [1]: 0.0655 nM | % relative activity parental antibody/tested antibody [2]: 68.3% | EC50 [2]: 0.18 nM | % relative activity (AUC) parental antibody/test antibody [3]: 86.4% | % relative activity (IC50) parental antibody/test antibody [3]: 85.3% | AUC [3]: 2.32 | IC50 [3]: 0.911 nM

B7: PVRIG-A50-H1c (Fc fusion)
chain: EVQLVESGGGLVQPGGSLRLSCAASGFTFSYYDMSWVRQAPGKGLEWVSTINSDGGRTSYVDSVKGRFTISRDNSKNTLYLQMNSLRAEDTAVYYCVEGDPHNFGLENLALRDFGSWGQGTMVTVSS
notes: humanized variant of PVRIG-A50; also called A50.VH1c; not shown: constant part not restated for the humanized forms; parents are VHH-hinge-CH2-CH3 of human IgG1; detected by anti-human
% relative activity parental antibody/tested antibody [1]: 87.3% | EC50 [1]: 0.105 nM | % relative activity parental antibody/tested antibody [2]: 69.5% | EC50 [2]: 0.177 nM | % relative activity (AUC) parental antibody/test antibody [3]: 76.3% | % relative activity (IC50) parental antibody/test antibody [3]: 65.9% | AUC [3]: 2.62 | IC50 [3]: 1.18 nM

B8: PVRIG-A50-H1e (Fc fusion)
chain: EVQLVESGGGLVQPGGSLRLSCAASGFTFSYYDMSWVRQAPGKGLEWVSTINSNAGRTSYVDSVKGRFTISRDNSKNTLYLQMNSLRAEDTAVYYCVEGDPHNFGLESLSLRDFGSWGQGTMVTVSS
notes: humanized variant of PVRIG-A50; also called VH1e; not shown: constant part not restated for the humanized forms; parents are VHH-hinge-CH2-CH3 of human IgG1; detected by anti-human
% relative activity parental antibody/tested antibody [1]: 116% | EC50 [1]: 0.0791 nM | % relative activity parental antibody/tested antibody [2]: 89.5% | EC50 [2]: 0.138 nM | % relative activity (AUC) parental antibody/test antibody [3]: 86.2% | % relative activity (IC50) parental antibody/test antibody [3]: 79.5% | AUC [3]: 2.32 | IC50 [3]: 0.977 nM

B9: PVRIG-A105-H1 (Fc fusion)
chain: EVQLVESGGGLVQPGGSLRLSCAASGRTFDRHTMSWFRQAPGKEREFVATASRIPGDTYYVDSVKGRFTISRDNAKNSLYLQMNSLRAEDTAVYYCAATSAYCSEVDCYEKGSWYDNWGQGTMVTVSS
notes: humanized variant of PVRIG-A105; also called A105.VH1; not shown: constant part not restated for the humanized forms; parents are VHH-hinge-CH2-CH3 of human IgG1; detected by anti-human
% relative activity parental antibody/tested antibody [1]: 150% | EC50 [1]: 0.0487 nM | % relative activity parental antibody/tested antibody [2]: 107% | EC50 [2]: 0.0303 nM | % relative activity (AUC) parental antibody/test antibody [3]: 112% | % relative activity (IC50) parental antibody/test antibody [3]: 133% | AUC [3]: 2.27 | IC50 [3]: 0.555 nM

B10: PVRIG-A105-H4 (Fc fusion)
chain: EVQLVESGGGLVQPGGSLRLSCAASGRTFDRHTMTWFRQAPGKEREFVATASRIPGDTYYSHSVKGRFTISRDNAKNSLYLQMNSLRAEDTAVYYCAATSAYCSEVDCYEKGSWYDNWGQGTMVTVSS
notes: humanized variant of PVRIG-A105; also called A105.VH4; not shown: constant part not restated for the humanized forms; parents are VHH-hinge-CH2-CH3 of human IgG1; detected by anti-human
% relative activity parental antibody/tested antibody [1]: 140% | EC50 [1]: 0.0521 nM | % relative activity parental antibody/tested antibody [2]: 89.4% | EC50 [2]: 0.0361 nM | % relative activity (AUC) parental antibody/test antibody [3]: 109% | % relative activity (IC50) parental antibody/test antibody [3]: 107% | AUC [3]: 2.32 | IC50 [3]: 0.686 nM

B11: PVRIG-A105-H3 (Fc fusion)
chain: EVQLVESGGGLVQPGGSLRLSCAASGRTFDRHTMTWFRQAPGKEREFVATASRIPGDTYYVDSVKGRFTISRDNAKNSVYLQMNSLRAEDTAVYYCAATSAYCSEVDCYEKGSWYDNWGQGTMVTVSS
notes: humanized variant of PVRIG-A105; also called A105.VH3; not shown: constant part not restated for the humanized forms; parents are VHH-hinge-CH2-CH3 of human IgG1; detected by anti-human
% relative activity parental antibody/tested antibody [1]: 125% | EC50 [1]: 0.0585 nM | % relative activity parental antibody/tested antibody [2]: 91.7% | EC50 [2]: 0.0352 nM | % relative activity (AUC) parental antibody/test antibody [3]: 101% | % relative activity (IC50) parental antibody/test antibody [3]: 97.9% | AUC [3]: 2.52 | IC50 [3]: 0.752 nM
